Two molecules from patent publication US20160200782A1 (MOERAE MATRIX, published 2016) can be followed below.

Experiment in all cases: cell-based or functional assay
In one assay the target is T1, PKD2(h) (human, UniProt Q9BZL6 1-878, limits assumed).
T1 sequence (looked up): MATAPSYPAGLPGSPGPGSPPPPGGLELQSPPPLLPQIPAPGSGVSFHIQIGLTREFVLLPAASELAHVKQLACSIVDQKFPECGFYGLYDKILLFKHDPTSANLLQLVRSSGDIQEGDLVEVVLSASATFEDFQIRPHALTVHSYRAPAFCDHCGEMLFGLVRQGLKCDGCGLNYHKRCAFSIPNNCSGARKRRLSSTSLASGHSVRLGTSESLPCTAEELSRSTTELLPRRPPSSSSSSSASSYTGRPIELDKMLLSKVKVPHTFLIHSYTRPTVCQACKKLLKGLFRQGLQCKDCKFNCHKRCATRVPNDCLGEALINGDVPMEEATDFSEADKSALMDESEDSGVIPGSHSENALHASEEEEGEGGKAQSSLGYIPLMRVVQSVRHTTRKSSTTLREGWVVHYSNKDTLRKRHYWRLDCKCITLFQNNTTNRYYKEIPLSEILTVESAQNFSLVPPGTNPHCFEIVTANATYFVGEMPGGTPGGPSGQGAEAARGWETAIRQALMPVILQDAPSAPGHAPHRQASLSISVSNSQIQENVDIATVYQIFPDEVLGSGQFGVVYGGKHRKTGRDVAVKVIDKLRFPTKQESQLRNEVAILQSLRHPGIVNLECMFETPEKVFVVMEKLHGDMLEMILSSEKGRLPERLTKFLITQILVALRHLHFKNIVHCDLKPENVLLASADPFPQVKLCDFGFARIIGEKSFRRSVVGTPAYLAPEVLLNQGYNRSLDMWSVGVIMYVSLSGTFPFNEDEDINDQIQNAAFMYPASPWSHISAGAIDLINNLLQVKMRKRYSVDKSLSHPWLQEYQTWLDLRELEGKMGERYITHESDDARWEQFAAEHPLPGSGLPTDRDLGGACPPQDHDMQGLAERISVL

For the next assay, the target named is T2, IKKβ(h) (human, UniProt O14920 1-756, limits assumed).
T2 sequence (looked up): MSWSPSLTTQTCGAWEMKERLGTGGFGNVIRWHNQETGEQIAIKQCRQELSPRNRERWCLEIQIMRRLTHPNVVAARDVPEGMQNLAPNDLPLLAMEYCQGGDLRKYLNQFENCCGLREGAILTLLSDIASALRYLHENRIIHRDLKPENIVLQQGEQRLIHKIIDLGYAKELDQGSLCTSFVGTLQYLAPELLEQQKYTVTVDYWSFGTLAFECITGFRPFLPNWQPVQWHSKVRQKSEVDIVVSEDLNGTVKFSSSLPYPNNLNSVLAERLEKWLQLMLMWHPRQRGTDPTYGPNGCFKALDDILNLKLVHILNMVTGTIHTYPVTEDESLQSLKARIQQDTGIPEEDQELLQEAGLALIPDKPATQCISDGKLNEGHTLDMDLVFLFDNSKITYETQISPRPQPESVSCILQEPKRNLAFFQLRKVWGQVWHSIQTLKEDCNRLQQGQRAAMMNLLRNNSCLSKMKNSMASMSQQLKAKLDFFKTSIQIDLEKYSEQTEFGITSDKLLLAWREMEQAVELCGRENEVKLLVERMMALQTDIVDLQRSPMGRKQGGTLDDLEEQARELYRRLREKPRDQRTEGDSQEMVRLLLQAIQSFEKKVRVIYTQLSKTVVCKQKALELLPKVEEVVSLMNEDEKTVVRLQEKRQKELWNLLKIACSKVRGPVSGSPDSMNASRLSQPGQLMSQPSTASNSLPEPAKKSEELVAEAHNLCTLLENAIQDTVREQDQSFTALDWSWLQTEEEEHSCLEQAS

For the next assay, the target named is CDK2/cyclinA(h) (human, UniProt P24941 1-298; P20248 1-432).
The target in the next assay is T3, EphA4(h) (human, UniProt P54764 570-986, limits assumed).
T3 sequence (looked up): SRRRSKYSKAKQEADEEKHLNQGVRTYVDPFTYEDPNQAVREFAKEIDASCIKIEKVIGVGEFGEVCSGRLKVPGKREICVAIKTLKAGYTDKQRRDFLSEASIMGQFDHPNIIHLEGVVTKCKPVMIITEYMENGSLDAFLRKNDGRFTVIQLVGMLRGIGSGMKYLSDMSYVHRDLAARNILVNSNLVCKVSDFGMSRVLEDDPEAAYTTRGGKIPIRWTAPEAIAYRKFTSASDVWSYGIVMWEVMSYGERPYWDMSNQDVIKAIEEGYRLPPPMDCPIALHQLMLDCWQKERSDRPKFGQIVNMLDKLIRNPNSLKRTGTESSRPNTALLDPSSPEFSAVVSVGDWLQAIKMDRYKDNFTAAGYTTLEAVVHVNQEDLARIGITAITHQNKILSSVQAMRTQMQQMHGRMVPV

The target in another assay is T4, Fms(Y969C)(h) (human, UniProt P07333 538-972, limits assumed).
T4 sequence (looked up): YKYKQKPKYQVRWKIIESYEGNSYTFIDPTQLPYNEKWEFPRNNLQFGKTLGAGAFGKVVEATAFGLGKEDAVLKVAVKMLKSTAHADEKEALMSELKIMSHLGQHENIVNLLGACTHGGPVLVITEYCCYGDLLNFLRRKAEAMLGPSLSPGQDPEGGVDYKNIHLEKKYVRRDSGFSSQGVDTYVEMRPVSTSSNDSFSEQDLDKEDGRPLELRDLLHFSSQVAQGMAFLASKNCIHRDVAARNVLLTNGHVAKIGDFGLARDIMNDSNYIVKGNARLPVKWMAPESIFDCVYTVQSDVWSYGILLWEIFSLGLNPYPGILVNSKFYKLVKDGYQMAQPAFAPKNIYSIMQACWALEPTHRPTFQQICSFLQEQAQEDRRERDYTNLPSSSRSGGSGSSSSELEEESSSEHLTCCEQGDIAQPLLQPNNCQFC

The target in another assay is T5, TAO2(h) (human, UniProt Q9UL54 1-314, limits assumed).
T5 sequence (looked up): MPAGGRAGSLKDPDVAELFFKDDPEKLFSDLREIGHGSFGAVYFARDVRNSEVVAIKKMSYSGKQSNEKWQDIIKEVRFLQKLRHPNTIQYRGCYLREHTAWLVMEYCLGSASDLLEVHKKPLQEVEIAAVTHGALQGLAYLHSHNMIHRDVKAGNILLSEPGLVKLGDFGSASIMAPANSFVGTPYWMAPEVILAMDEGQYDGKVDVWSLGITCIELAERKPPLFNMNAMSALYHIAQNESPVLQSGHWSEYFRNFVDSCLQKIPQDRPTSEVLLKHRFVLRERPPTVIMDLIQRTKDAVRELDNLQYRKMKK

Consider FAKLAARLYRKALARQLGVAA [MMI-0300], for which the “% activity” value was determined as 33% with PKD2(h); 84% in the assay with IKKβ(h); 86% with CDK2/cyclinA(h); 88% in the assay with EphA4(h); 72% with Fms(Y969C)(h); 70% in the assay with TAO2(h).

Consider KAFAKLAARLYRKALARQLGVAA [MMI-0400], for which the “% activity” value with PKD2(h) worked out at 25%; with IKKβ(h), 84%; with CDK2/cyclinA(h) it was 92%; in the assay with EphA4(h), 65%; in the assay with Fms(Y969C)(h), 91%; in the assay with TAO2(h), 74%.
